This experiment concerns the target T1, GC-C receptor (Homo sapiens, UniProt P25092).
T1 construct: production of intracellular cGMP using cultured human colon carcinoma T84 cells; endogenous in cells; host or cells: T84 human colon carcinoma cells
Briefly: production of intracellular cGMP in cultured human colon carcinoma T84 cells (cGMP ELISA). It counts as cell-based. The conditions noted are these: intracellular cGMP by ELISA kit, compared with synthetic human uroguanylin, FIG. 8. Here is the method:
The ability of polypeptides, variant polypeptides and other compounds to bind to and activate the intestinal GC-C receptor can be tested using the T84 human colon carcinoma cell line (American Type Culture Collection (Bethesda, Md.).
Briefly, cells are grown to confluency in 24-well culture plates with a 1:1 mixture of Ham's F12 medium and Dulbecco's modified Eagle's medium (DMEM), supplemented with 5% fetal calf serum and are used at between passages 54 and 60.
Monolayers of T84 cells in 24-well plates are washed twice with 1 ml/well DMEM, then incubated at 37° C. for 10 min with 0.45 ml DMEM containing 1 mM isobutylmethylxanthine (IBMX), a cyclic nucleotide phosphodiesterase inhibitor. Test polypeptides (50Tl) are then added and incubated for 30 minutes at 37° C. The media is aspirated and the reaction is terminated by the addition of ice cold 0.5 ml of 0.1N HCl. […] Cyclic GMP is measured by EIA according to procedures outlined in the Cayman Chemical Cyclic GMP EIA kit.
The activity of the mature peptide was evaluated by the production of intracellular cGMP using cultured human colon carcinoma T84 cells, as described by Currie et al. (Pro. Natl. Acad. Sci. USA., 89:947-951, 1992). cGMP levels were subsequently measured using a cGMP ELISA kit (Cayman Chemical, Ann Arbor, Mich.) according to the manufacturer's protocol. […]
(ELISA stands for enzyme-linked immunosorbent assay.)

T1 sequence (P25092 24-1073): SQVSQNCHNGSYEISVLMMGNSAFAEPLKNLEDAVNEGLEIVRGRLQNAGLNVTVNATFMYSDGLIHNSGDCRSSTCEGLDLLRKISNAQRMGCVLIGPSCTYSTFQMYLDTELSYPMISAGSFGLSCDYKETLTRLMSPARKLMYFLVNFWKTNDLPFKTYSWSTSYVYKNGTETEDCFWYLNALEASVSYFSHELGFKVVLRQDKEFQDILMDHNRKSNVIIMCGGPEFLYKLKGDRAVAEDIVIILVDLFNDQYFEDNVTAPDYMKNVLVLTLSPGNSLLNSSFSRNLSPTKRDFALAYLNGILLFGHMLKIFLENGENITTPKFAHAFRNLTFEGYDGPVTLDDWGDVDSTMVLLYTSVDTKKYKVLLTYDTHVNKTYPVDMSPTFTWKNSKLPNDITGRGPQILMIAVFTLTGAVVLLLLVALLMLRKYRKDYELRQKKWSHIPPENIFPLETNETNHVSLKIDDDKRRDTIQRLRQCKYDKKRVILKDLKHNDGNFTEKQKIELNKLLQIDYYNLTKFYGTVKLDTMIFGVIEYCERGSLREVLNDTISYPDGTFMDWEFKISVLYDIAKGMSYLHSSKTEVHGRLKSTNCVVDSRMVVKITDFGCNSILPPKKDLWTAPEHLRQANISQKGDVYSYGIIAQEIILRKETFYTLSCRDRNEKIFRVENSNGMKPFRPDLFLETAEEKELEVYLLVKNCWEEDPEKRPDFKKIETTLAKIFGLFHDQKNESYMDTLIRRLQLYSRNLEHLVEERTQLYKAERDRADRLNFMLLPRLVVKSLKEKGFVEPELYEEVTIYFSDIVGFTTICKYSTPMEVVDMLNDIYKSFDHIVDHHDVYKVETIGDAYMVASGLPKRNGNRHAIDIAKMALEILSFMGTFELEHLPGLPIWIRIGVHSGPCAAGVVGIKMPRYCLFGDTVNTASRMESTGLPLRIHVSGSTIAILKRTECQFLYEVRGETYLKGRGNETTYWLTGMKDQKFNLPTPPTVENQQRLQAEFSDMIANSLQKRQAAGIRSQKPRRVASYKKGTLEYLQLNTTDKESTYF

Regarding NDDCELCVNVACTGCL [mature UGN peptide], the cGMP levels produced entry is recorded as “comparable to those levels produced using synthetic human UGN”.

For the origin of these results see patent US20110306125A1, “Protein Expression Methods” (Ironwood Pharmaceuticals, Inc., priority 2008, published 2011).
